Assay results from paper doi:10.1101/2023.04.24.538112.
pKd: −log10 of the molar value.

Target: Full-length (FL) BRAF purified from HEK293F cells (UniProt P15056)
Assay: SPR; OpenSPR; His/MBP-NT1-4 or FL-BRAF immobilised on Ni-NTA sensor, KRAS-GMPPNP (GST-tagged or untagged) or GST alone flowed at 30 μL/min for 10 min; 20 mM HEPES pH 7.4, 150 mM NaCl, 0.23% glycerol, 0.05% Tween-20, 1% BSA; 1:1 fit

Chain of Full-length (FL) BRAF purified from HEK293F cells (P15056 whole entry): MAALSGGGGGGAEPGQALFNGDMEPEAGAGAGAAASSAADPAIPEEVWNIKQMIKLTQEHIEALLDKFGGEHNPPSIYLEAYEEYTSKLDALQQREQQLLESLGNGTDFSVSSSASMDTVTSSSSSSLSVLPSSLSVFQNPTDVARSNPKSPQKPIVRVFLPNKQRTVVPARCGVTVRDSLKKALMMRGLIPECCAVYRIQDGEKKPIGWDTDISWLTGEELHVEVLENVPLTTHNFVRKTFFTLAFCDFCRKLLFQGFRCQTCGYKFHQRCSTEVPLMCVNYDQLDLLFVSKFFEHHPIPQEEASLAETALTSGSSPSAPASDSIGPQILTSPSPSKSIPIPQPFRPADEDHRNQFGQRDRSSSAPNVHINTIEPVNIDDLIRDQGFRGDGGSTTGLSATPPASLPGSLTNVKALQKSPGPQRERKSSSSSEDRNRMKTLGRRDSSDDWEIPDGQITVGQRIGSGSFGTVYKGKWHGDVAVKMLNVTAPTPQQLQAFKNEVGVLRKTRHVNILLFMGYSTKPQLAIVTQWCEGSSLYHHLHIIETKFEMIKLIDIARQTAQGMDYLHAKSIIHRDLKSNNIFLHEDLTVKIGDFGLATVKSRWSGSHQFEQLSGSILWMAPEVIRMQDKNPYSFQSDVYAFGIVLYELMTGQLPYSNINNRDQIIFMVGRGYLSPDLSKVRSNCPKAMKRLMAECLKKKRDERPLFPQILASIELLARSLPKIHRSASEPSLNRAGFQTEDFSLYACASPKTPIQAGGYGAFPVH

pKd: 7.00
Substance: GST-tagged, dimeric full-length KRAS4b (from UniProt P01116-2 1-188) (natural protein)
